Laboratory results from the supplement of paper PMC10567573.
± gives the standard deviation.

Test: protein stability index of a GFP-peptide fusion (GPS, HEK-293T) (PSI 1-6); higher = more stable
[1] = treatment: DMSO, c terminus: a fixed tail appended
[2] = treatment: MLN4924 1 uM, 8 h, c terminus: a fixed tail appended
[3] = treatment: DMSO, c terminus: native
[4] = treatment: MLN4924 1 uM, 8 h, c terminus: native
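Further: 24-mer peptide tiles fused after GFP, lentivirally expressed, FACS-sorted into six equal bins by GFP/DsRed ratio, decoded by Illumina sequencing, PSI is the read-weighted mean bin number.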

Sequence	protein stability index [1]	protein stability index [2]	protein stability index [3]	protein stability index [4]
EDITYVLKPTFTKQQIANLDKQAK [USP39]	4.01 ± 0.097	4.17 ± 0.13	–	–
EDLEWERYRGRGSEEYRAPRPQSE [CHGB]	5.19 ± 0.38	5.33 ± 0.23	–	–
EDSSLPSINALLQAEVLSRQITSP [HNF4A]	4.25 ± 0.16	4.27 ± 0.093	–	–
EEDEQLRALVRQFGQQDWKFLASH [MYBL2]	3.17 ± 0.36	3.46 ± 0.17	–	–
EEEAGQTSIEPSKSSIIPFRALKR [ZER1]	4.87 ± 0.26	5.09 ± 0.16	–	–
EEHWVGLKKEPGHPWKWSNGKEFN [CD69]	3.19 ± 0.27	3.33 ± 0.21	–	–
EEKERIGQFVFARDAKAAMAGRLM [AASDHPPT]	3.36 ± 0.19	3.43 ± 0.32	–	–
EEPSKYGVVVCEADTGRIHRFVEK [GMPPB]	3.94 ± 0.32	3.99 ± 0.18	–	–
EERERKRRKEEEVQQQKLAEERRR [FAF2]	5.34 ± 0.34	5.36 ± 0.25	–	–
EERILHQQVKCIITEEKVCMVCKK [VPS39]	4.21 ± 0.33	4.39 ± 0.29	–	–
EESASRQRFGEALQDQEKAWGFPE [ELOA2]	5 ± 0.16	5 ± 0.31	–	–
EEVVSFVKKNVLVTGGFFGGFLLG [FUNDC2]	2.36 ± 0.68	2.61 ± 0.73	–	–
EEWLLVGTKQGHLLLYRIRKDVGC [VPS39]	3.08 ± 1.3	2.48 ± 0.5	–	–
EFFGSASQPAVELVSGSQSALGPP [CLINT1]	3.96 ± 0.11	3.92 ± 0.51	–	–
EFPQFEPQRYPACAQMLPPNLSPH [TRAF3IP2]	3.22 ± 0.18	3.1 ± 0.36	–	–
EFRDDRDLVMALSAGGHGGLLNDT [KCNA4]	4.06 ± 0.35	3.91 ± 0.23	–	–
EFTELLKVMIHPDPERRPSAMALV [WEE1]	2.23 ± 0.35	2.06 ± 0.23	–	–
EFVIIDCRYPYEYEGGHIKGAVNL [CDC25A]	2.47 ± 0.29	2.3 ± 0.43	–	–
EGEIATYRHLLEGEDCKLPPQPCA [KRT36]	4.6 ± 0.26	4.26 ± 0.24	–	–
EGHLDDGGYTPDLKMSYSRGLIPV [RBMY1A1]	3.25 ± 0.14	3.15 ± 0.38	–	–
EGIKVEDLLFIVDTMLEEVENKEK [CEP70]	3.07 ± 0.27	3.03 ± 0.42	–	–
EGVDIKNGTEDLPYAMKPIDYYTE [NSDHL]	4.72 ± 0.25	4.76 ± 0.27	–	–

Sequence	protein stability index [1]	protein stability index [2]	protein stability index [3]	protein stability index [4]
EISRGEYLYTYDSQITDSEHNSSL [ZNF8]	4.29 ± 0.49	4.25 ± 0.54	–	–
EIVGNLGEGTFGKVVECLDHARGK [CLK3]	3.81 ± 0.1	3.97 ± 0.29	–	–
EKEFMKGNQLISNNIKFKKSSILT [CLCN6]	3.46 ± 0.17	3.48 ± 0.38	–	–
EKKEKEKKKKDKEKEKEKHKVKAE [BRD3]	5.41 ± 0.22	5.53 ± 0.42	–	–
EKVSQELKEPLHKALQMLLSQPVT [BCL2L13]	2.88 ± 0.26	3 ± 0.45	–	–
ELARIVLLRHRMNWLGRPSKVLSL [RAB40A]	2.46 ± 0.73	2.43 ± 0.43	–	–
ELDGPKQIFFGRRKDMIAEKLAPS [ZNF396]	3.62 ± 0.11	3.62 ± 0.27	–	–
ELEGTEELCCVAELDNPMQQKWTK [C2CD2L]	4.58 ± 0.45	4.77 ± 0.28	–	–
ELFKKDPGFDRGQFHKQIAVMRGQ [PI4K2A]	2.8 ± 0.33	3.03 ± 0.19	–	–
ELFPTGKQLEPLVAPLADGKVAVG [VPS39]	3.84 ± 0.25	3.8 ± 0.24	–	–
ELIILYEKKGLHEKALQVLVDQSK [VPS39]	2.26 ± 0.25	2.53 ± 0.22	–	–
ELRRDSSESQLASTESDKPTTGRV [C18orf25]	5.28 ± 0.38	5.39 ± 0.21	–	–
EMIQTSKTEITDLRRTMQELEIEL [KRT15]	3.65 ± 0.25	3.65 ± 0.13	–	–
EMPYNIWCDGCKNHIGMGVRYNAE [YJU2B]	2.27 ± 0.32	2.49 ± 0.25	–	–
ENYDIIKTYHYLYLAMLERFQDGD [FEM1B]	2.37 ± 0.56	2.52 ± 0.54	–	–
EPEAASSRGSPVRVKREFEPASAR [USP39]	5.04 ± 0.16	5.11 ± 0.16	–	–
EPLMTNKLSETFLQIYQYVPKDQR [DLC1]	3.05 ± 0.33	3.47 ± 0.47	–	–
EQAKENENGELQKIILPRSRVKG [ZC2HC1C]	–	–	3.42 ± 0.47	3.42 ± 0.28
EQFPELMNMLWSRMLKDNKKNWRR [CLINT1]	2.14 ± 0.037	2.39 ± 0.26	–	–
EQLEAEAQALRQELERQRRLLGSV [PBXIP1]	4.04 ± 0.22	4.02 ± 0.21	–	–
EQVFSLGDGVSGGFFGIRDSSFL [ZBED1]	–	–	3.36 ± 0.31	3.61 ± 0.27
ERICSEEERAKAKHLARQLEEKDR [CHCHD3]	5.4 ± 0.13	5.17 ± 0.35	–	–

Sequence	protein stability index [1]	protein stability index [2]	protein stability index [3]	protein stability index [4]
ERLCMGVDCTEIFGGNPRFLSLHR [ZNF263]	2.54 ± 0.24	2.83 ± 0.13	–	–
ERSGCALTDAVAPGNKGRGQRGNT [TCF25]	5.22 ± 0.11	5.23 ± 0.13	–	–
ERSQVRGSAPPRATPGGGTGEAAR [PCDHGC5]	5.13 ± 0.31	5.4 ± 0.18	–	–
ESFFVDYEENEGAGPYLLNGSYLE [ADAMTSL2]	3.658 ± 0.034	3.82 ± 0.072	–	–
ESGEHFRSLLGYDPQILQMLKEEH [RAD54B]	3.77 ± 0.35	3.56 ± 0.55	–	–
ESKIREHLEKKGPQVRDWSHYFKI [KRT18]	2.82 ± 0.26	2.67 ± 0.28	–	–
ETPNPPQSAQIACSSPSVVASLPL [MAGEA10]	4.62 ± 0.25	4.59 ± 0.38	–	–
ETQTQRGGEFQCGLEAASVYSDHT [RNF180]	2.33 ± 0.16	2.2 ± 0.078	–	–
EVANKDLTERKYKGDSTIRELKAK [SASS6]	3.27 ± 0.39	3.27 ± 0.53	–	–
EVMESEEFMLLPANQLIDIISSDE [KLHL20]	4.54 ± 0.23	4.64 ± 0.32	–	–
EWDKNKSAFPFSDKLGELSDKIGS [CLINT1]	3.57 ± 0.37	3.6 ± 0.22	–	–
EYTLTGLKFDMKYMNFRVKACNKA [FSD1]	2.79 ± 0.12	2.77 ± 0.45	–	–
FAIGARARAEAEQMAKKAEAFQLY [FLOT1]	2.78 ± 0.42	3.02 ± 0.58	–	–
FDYEYDWIGKQLPTPVGAVQQDPA [CSNK1G3]	3.63 ± 0.2	3.65 ± 0.44	–	–
FEFQVRVCDSCYDSIKDEDRTSLA [WDFY1]	2.78 ± 0.23	3 ± 0.61	–	–
FEFSVDSFQIVLDPMLDFYSDKNA [TENT5D]	2.91 ± 0.93	2.52 ± 0.42	–	–
FFLFIGVILFSSAVYFAEADDPTS [KCNA3]	2.8 ± 0.1	3.09 ± 0.2	–	–
FGCFFYVYYIFERLCAPLFRNIKQ [SOAT1]	2.37 ± 0.2	2.69 ± 0.068	–	–
FILGRLCVPVFANMSREPFSTRAL [SOAT2]	2.94 ± 0.56	2.56 ± 0.52	–	–
FKAYIKIYQGEDLPHPKSMLQATA [ATL3]	2.78 ± 0.35	2.5 ± 0.57	–	–
FKDKLEETKGQINNSIKDLTDGHF [SERPINB5]	4.42 ± 0.2	4.5 ± 0.2	–	–
